Test results published in the supplement of paper PMC11246515.
± gives the standard deviation of the averaged measurements.

Assay: total protein half-life in vivo (active degradation + dilution); higher = more stable protein
[1] = wild type E. coli NCM3722, growth: C-lim chemostat, doubling time 3 h
[2] = wild type E. coli NCM3722, growth: C-lim chemostat, doubling time 6 h
[3] = wild type E. coli NCM3722, growth: C-lim chemostat, doubling time 12 h
[4] = E. coli NCM3722 delta-clpP delta-lon delta-hslV, growth: N-lim chemostat, doubling time 6 h
[5] = E. coli NCM3722 delta-clpP, growth: N-lim chemostat, doubling time 6 h
[6] = E. coli NCM3722 delta-hslV, growth: N-lim chemostat, doubling time 6 h
[7] = E. coli NCM3722 delta-lon, growth: N-lim chemostat, doubling time 6 h
[8] = E. coli NCM3722 delta-smpB, growth: N-lim chemostat, doubling time 6 h
[9] = wild type E. coli NCM3722, growth: N-lim chemostat, doubling time 6 h
[10] = wild type E. coli NCM3722, growth: N-lim chemostat, doubling time 12 h
[11] = wild type E. coli NCM3722, growth: P-lim chemostat, doubling time 6 h
[12] = wild type E. coli NCM3722, growth: P-lim chemostat, doubling time 12 h

| Sequence | total protein half-life in vivo [1] [h] | total protein half-life in vivo [2] [h] | total protein half-life in vivo [3] [h] | total protein half-life in vivo [4] [h] | total protein half-life in vivo [5] [h] | total protein half-life in vivo [6] [h] | total protein half-life in vivo [7] [h] | total protein half-life in vivo [8] [h] | total protein half-life in vivo [9] [h] | total protein half-life in vivo [10] [h] | total protein half-life in vivo [11] [h] | total protein half-life in vivo [12] [h] |
| --- | --- | --- | --- | --- | --- | --- | --- | --- | --- | --- | --- | --- |
| MKKLALILFMGTLVSFYADAGRKPCSGSKGGISHCTAGGKFVCNDGSISASKKTCTN [P0ACW4] | 0.862 | 4.49 | 4.67 |  |  |  |  |  |  |  |  |  |
| MKKLITANDIREAHARGEQAMSVVLRASIITPEAREVADLLGFTITECDESIPVTASVPASVPADKTESQRIRETIIAQLPEGQFTESLVAQLMEKVMKEKQSLEQGAMQPSFKSVTGKGGIKVIDGSSVKFGRFDGAEPHCVGLTDLVTGDDGSSMAAGFMQWENAFFPWTLNYDEIDMVLEGELHVRHEGQTMIAKAGDVMFIPKGSSIEFGTTSSVKFLYVAWPANWQSL | 2.12 ± 0.14 | 4.18 ± 0.51 | 5.42 ± 1.1 | 5.08 ± 0.37 | 1.62 | 1.44 ± 0.19 | 2.42 ± 0.052 | 1.55 ± 0.36 | 1.84 | 2.19 | 2.44 | 3.93 |
| MKKLKLHGFNNLTKSLSFCIYDICYAKTAEERDGYIAYIDELYNANRLTEILSETCSIIGANILNIARQDYEPQGASVTILVSEEPVDPKLIDKTEHPGPLPETVVAHLDKSHICVHTYPESHPEGGLCTFRADIEVSTCGVISPLKALNYLIHQLESDIVTIDYRVRGFTRDINGMKHFIDHEINSIQNFMSDDMKALYDMVDVNVYQENIFHTKMLLKEFDLKHYMFHTKPEDLTDSERQEITAALWKEMREIYYGRNMPAV [P0A7F6] | 2.8 ± 0.15 | 4.99 | 9.17 ± 0.37 |  | 4.12 ± 0.42 | 3.29 ± 0.22 | 3.67 ± 0.29 | 3.3 ± 0.2 | 2.928 ± 0.015 | 4.17 ± 0.036 | 4.78 ± 0.48 | 7.61 ± 1.4 |
| MKKLLRLFFPLSLRVRFLLATAAVVLVLSLAYGMVALIGYSVSFDKTTFRLLRGESNLFYTLAKWENNKLHVELPENIDKQSPTMTLIYDENGQLLWAQRDVPWLMKMIQPDWLKSNGFHEIEADVNDTSLLLSGDHSIQQQLQEVREDDDDAEMTHSVAVNVYPATSRMPKLTIVVVDTIPVELKSSYMVWSWFIYVLSANLLLVIPLLWVAAWWSLRPIEALAKEVRELEEHNRELLNPATTRELTSLVRNLNRLLKSERERYDKYRTTLTDLTHSLKTPLAVLQSTLRSLRSEKMSVSDAEPVMLEQISRISQQIGYYLHRASMRGGTLLSRELHPVAPLLDNLTSALNKVYQRKGVNISLDISPEISFVGEQNDFVEVMGNVLDNACKYCLEFVEISARQTDEHLYIVVEDDGPGIPLSKREVIFDRGQRVDTLRPGQGVGLAVAREITEQYEGKIVAGESMLGGARMEVIFGRQHSAPKDE | 3.26 ± 0.4 | 5.936 ± 0.044 | 10.2 ± 1.2 | 7.01 ± 1.1 | 6.22 ± 0.32 | 5.85 ± 0.59 | 6.87 ± 1.1 | 6.02 ± 0.93 | 6.046 ± 0.045 | 12.5 ± 0.13 | 6.36 ± 0.37 | 13.5 ± 1.9 |
